Test results as given in publication PMC10977697 (PLOS ONE, 2024).

T1: Notch2Long (Notch2 EGF6-EGF12) (human, UniProt Q04721 219-418, biotin on the N-terminal Avi tag (enzymatic))
T1 construct: also called N2L protein; hNotch2; not shown: Avi tag, N-terminal, kept
T1 sequence (looked up): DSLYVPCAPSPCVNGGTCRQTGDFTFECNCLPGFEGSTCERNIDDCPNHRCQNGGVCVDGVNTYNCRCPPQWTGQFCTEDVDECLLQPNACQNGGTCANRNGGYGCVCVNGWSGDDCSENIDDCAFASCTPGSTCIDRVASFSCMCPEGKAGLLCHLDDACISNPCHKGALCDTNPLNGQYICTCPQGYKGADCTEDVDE

B1: N2L.EET31.43.24 displayed on M13 phage (p3) (designed binder)
chain: GCIKSHLWCPKTSDCEAGCICEVWIQCG
B2: N2L.EET31.32.29 displayed on M13 phage (p3) (designed binder)
chain: GCIKSHLWCPRHEKCLAGCVCEVWIRCG
B3: N2L.EET31.43.75 displayed on M13 phage (p3) (designed binder)
chain: GCIKSHLWCDPRKDCEAGCICEVWIQCG
B4: N2L.EET31.43.78 displayed on M13 phage (p3) (designed binder)
chain: GCIKSHLWCDPRVSCEAGCICEVWIQCG
B5: N2L.EET31.43.88 displayed on M13 phage (p3) (designed binder)
chain: GCIKSHLWCDPRKSCEAGCICEVWIQCG
B6: N2L.EET31.43.35 displayed on M13 phage (p3) (designed binder)
chain: GCIKSHLWCPPPRRCEAGCICEVWIQCG
B7: N2L.EET31.32.33 displayed on M13 phage (p3) (designed binder)
chain: GCIKSHLWCPRAEKCLAGCICEVWIQCG
B8: N2L.EET31.32.85 displayed on M13 phage (p3) (designed binder)
chain: GCVRSHVWCPSDERCLAGCVCEIWIRCG
B9: N2L.EET31.43.43 displayed on M13 phage (p3) (designed binder)
chain: GCIRSHVWCKQDSDCEAGCICEIWIQCG
B10: N2L.EET31.43 displayed on M13 phage (p3) (designed binder)
chain: GCIKSHLWCKQDSDCEAGCICEVWIQCG
notes: also called N2L.31.L34.43
B11: N2L.EET31.43.18 displayed on M13 phage (p3) (designed binder)
chain: GCIKSHLWCHPKLDCEAGCICEVWIQCG
B12: N2L.EET31.43.73 displayed on M13 phage (p3) (designed binder)
chain: GCVRSHLWCKQDSDCEAGCICEVWIKCG
B13: N2L.EET31.32.70 displayed on M13 phage (p3) (designed binder)
chain: GCIRSHLWCPPSASCLAGCVCEVWIQCG
B14: N2L.EET31.32 displayed on M13 phage (p3) (designed binder)
chain: GCIKSHLWCPSDERCLAGCVCEVWIQCG
notes: also called N2L.31.L2.32
B15: N2L.EET31.43.64 displayed on M13 phage (p3) (designed binder)
chain: GCIRSHVWCKQDSDCEAGCICEVWVKCG
B16: N2L.EET31.32.48 displayed on M13 phage (p3) (designed binder)
chain: GCIKSHLWCPGKERCLAGCICEIWIQCG
B17: N2L.EET31.32.21 displayed on M13 phage (p3) (designed binder)
chain: GCIKSHLWCPPSDYCLAGCVCEVWIQCG
B18: N2L.EET31.32.13 displayed on M13 phage (p3) (designed binder)
chain: GCIKSHLWCPRDSDCLAGCVCEVWIQCG
B19: N2L.EET31.43.30 displayed on M13 phage (p3) (designed binder)
chain: GCIKSHLWCPHGGRCEAGCICEVWIQCG
B20: N2L.EET31.32.80 displayed on M13 phage (p3) (designed binder)
chain: GCIRSQLWCPSDERCLAGCVCEVWIKCG
B21: N2L.EET03.10 displayed on M13 phage (designed binder)
chain: GCGWTLRHCKQDSDCLAGCVCRPIWYCG

Each binder was assayed against T1, Notch2Long (Notch2 EGF6-EGF12) (assay: ELISA). Conditions: one partner purified.

Binder | ELISA | s/n Ratio
B1 | 2.1 | 10.5
B2 | 2 | 9.3
B3 | 2.1 | 10.3
B4 | 1.9 | 10.3
B5 | 1.9 | 10.2
B6 | 2.1 | 11.6
B7 | 1.9 | 9.3
B8 | 2 | 4.3
B9 | 2 | 10.2
B10 | 0.7 | 5.1
B11 | 2.1 | 10.2
B12 | 2.3 | 11
B13 | 1.9 | 7.3
B14 | 0.5 | 3.7
B15 | 2 | 8.8
B16 | 1.9 | 7.2
B17 | 1.8 | 9.1
B18 | 2.2 | 10.2
B19 | 2.2 | 10.7
B20 | 2.1 | 7.6
B21 | 3 | 48.4
